Consider 34 molecules from US20240158475A1.

Sequences and labels used below:
B1: Mutation 1-23 (antibody, V domains shown)
VH: EVQLQQSGTELVRPGALVKLSCKASGFNIKDYYLHWVKQRPRQGLEWIGWIDPENGKTIYDPKFQDKASITSDTSTNTAYLQLRSLTSEDTAVYYCVTAYFRFVYWGQGTLVTVSA
VL: QIVLTQSPAIMSAFPGERVTMTCSASSSVRYMYWHQQKPGSSPRLLIYDTSNVASGVPVRFSGSGSGTSYSLTISRDEAMDAATYYCQQWSSTPRTFGGGTKLEIKR
B2: WT 1-1 (antibody, V domains shown)
VH: B1 VH with D31E, L34I, E54D, F64V
VL: B1 VL with S27T, R30K, D49E, V53I, V57F, W90Q, T93Y
B3: Mutation 1-8 (antibody, V domains shown)
VH: B1 VH with F101Y
VL: B1 VL with S27T, T93F
B4: Mutation 1-29 (antibody, V domains shown)
VH: B1 VH with T98S, F101Y
VL: B1 VL with S27T, T93Y
B5: Mutation 1-30 (antibody, V domains shown)
VH: B1 VH with L34V
VL: B1 VL with V53I, T93Y
B6: WT 1-20 (antibody, V domains shown)
VH: B1 VH with D31E, L34I, E54D, I59L, F64V, T98S
VL: B1 VL with R30K, D49E, V53I, V57F, W90Q, T93Y
B7: Mutation 1-11 (antibody, V domains shown)
VH: B1 VH with I59L, T98S, F101Y
VL: B1 VL with T93F
B8: Mutation 1-27 (antibody, V domains shown)
VH: B1 VH with L34V, T98S, F101V
VL: B1 VL with V53L
B9: Mutation 1-26 (antibody, V domains shown)
VH: B1 VH with I59L, F101Y
VL: B1 VL with T93Y
B10: Mutation 1-5 (antibody, V domains shown)
VH: B1 VH with T98S, F101Y
VL: B1 VL with S27T, T93F
B11: Mutation 1-25 (antibody, V domains shown)
VH: B1 VH with L34I
VL: B1 VL with V53L
B12: Mutation 1-7 (antibody, V domains shown)
VH: B1 VH with L34I, I59L
VL: B1 VL with V53L, T93Y
B13: Mutation 1-31 (antibody, V domains shown)
VH: B1 VH with L34I, I59L, F101V
VL: B1 VL with S27T, V53L, T93F
B14: Mutation 1-9 (antibody, V domains shown)
VH: B1 VH with L34V, I59L, T98S, F101V
VL: B1 VL with V53I
B15: Mutation 1-33 (antibody, V domains shown)
VH: B1 VH with L34V, I59L, F101Y
VL: B1 VL with S27T, V53I, T93Y
B16: Mutation 1-2 (antibody, V domains shown)
VH: B1 VH with I59L, F101Y
VL: B1 VL with T93F
B17: Mutation 1-41 (antibody, V domains shown)
VH: B1 VH with T98S, F101Y
VL: B1 VL with S27T, V53I, T93Y
B18: WT 1-4 (antibody, V domains shown)
VH: B1 VH with D31E, E54D, I59L, F64V, F101Y
VL: B1 VL with R30K, D49E, V53L, V57F, W90Q, T93F
B19: Mutation 1-32 (antibody, V domains shown)
VH: B1 VH
VL: B1 VL with V53I
B20: Mutation 1-34 (antibody, V domains shown)
VH: B1 VH with L34I, T98S, F101V
VL: B1 VL with V53L, T93F
B21: Mutation 1-3 (antibody, V domains shown)
VH: B1 VH with L34V, T98S, F101V
VL: B1 VL with S27T, V53I
B22: Mutation 1-4 (antibody, V domains shown)
VH: B1 VH with L34I, I59L, T98S
VL: B1 VL with V53L, T93Y
B23: Mutation 1-6 (antibody, V domains shown)
VH: B1 VH with L34V, F101V
VL: B1 VL with S27T, V53I
B24: Mutation 1-28 (antibody, V domains shown)
VH: B1 VH with L34I, I59L, T98S
VL: B1 VL with S27T, V53L, T93Y
B25: WT 1-7 (antibody, V domains shown)
VH: B1 VH with D31E, L34V, E54D, F64V, T98S, F101V
VL: B1 VL with S27T, R30K, D49E, V57F, W90Q
B26: Mutation 1-10 (antibody, V domains shown)
VH: B1 VH with L34I, T98S
VL: B1 VL with S27T, V53L, T93Y
B27: Mutation 1-35 (antibody, V domains shown)
VH: B1 VH with I59L, T98S, F101Y
VL: B1 VL with S27T
B28: Mutation 1-1 (antibody, V domains shown)
VH: B1 VH with L34I
VL: B1 VL with S27T, V53L, T93Y
B29: Mutation 1-36 (antibody, V domains shown)
VH: B1 VH with L34V
VL: B1 VL with V53L, T93F
B30: Mutation 1-24 (antibody, V domains shown)
VH: B1 VH with L34V, I59L, F101V
VL: B1 VL with S27T, V53I, T93Y
B31: Mutation 1-38 (antibody, V domains shown)
VH: B1 VH with I59L
VL: B1 VL with V53I, T93Y
B32: Mutation 1-37 (antibody, V domains shown)
VH: B1 VH with L34I, I59L, T98S, F101Y
VL: B1 VL with S27T
B33: Mutation 1-39 (antibody, V domains shown)
VH: B1 VH with L34V
VL: B1 VL with S27T, V53L, T93F
B34: Mutation 1-40 (antibody, V domains shown)
VH: B1 VH with L34I, I59L, F101V
VL: B1 VL

Substitutions are numbered along the chain they refer to.

One may read the Kd as the concentration at which binding is half-saturated. One may read the koff as the first-order rate constant of dissociation. The term kon denotes the second-order rate constant of association.

The test addresses DN-III quality control recombinant protein (produced by Fapon Biotech InC.) (dengue virus). The test can be described thus: BLI, AMC sensor, antibody captured. For orientation: BLI is a label-free optical method that tracks binding on a fibre tip over time.
For B1, the dissociation constant Kd was determined as 0.46 nM, the koff was determined as 3.86e-05 s⁻¹ and the kon was 44600 M⁻¹ s⁻¹.

In the case of B2, the Kd is 6 nM, the koff is 2.28e-05 s⁻¹ and the kon is 3770 M⁻¹ s⁻¹.

On to B3, for which the Kd is 0.7 nM, the koff stood at 2.33e-05 s⁻¹ and the on-rate (kon) is 33200 M⁻¹ s⁻¹.

Take B4: the Kd is 0.9 nM, the koff came out at 3.23e-05 s⁻¹ and the on-rate constant (kon) is 35700 M⁻¹ s⁻¹.

For the molecule B5, the Kd was found to be 0.95 nM, the koff amounted to 3.56e-05 s⁻¹ and the kon came out at 37600 M⁻¹ s⁻¹.

On to B6, for which the Kd came to 5.3 nM, the koff amounted to 1.64e-05 s⁻¹ and the kon turned out to be 3120 M⁻¹ s⁻¹.

In the case of B7, the Kd came to 0.87 nM, the koff is 2.83e-05 s⁻¹ and the kon turned out to be 32400 M⁻¹ s⁻¹.

Take B8: the equilibrium dissociation constant (Kd) was 0.121 nM, the koff worked out at 3.66e-05 s⁻¹ and the association rate constant (kon) was determined as 303000 M⁻¹ s⁻¹.

Take B9: the Kd came to 0.111 nM, the koff was found to be 3.47e-05 s⁻¹ and the kon amounted to 312000 M⁻¹ s⁻¹.

Take B10: the dissociation constant (Kd) is 0.43 nM, the koff was 2.11e-05 s⁻¹ and the on-rate constant (kon) was 49700 M⁻¹ s⁻¹.

For B11, the dissociation constant Kd was determined as 1.09 nM, the off-rate constant (koff) came out at 1.78e-05 s⁻¹ and the kon stood at 33900 M⁻¹ s⁻¹.

For B12, the dissociation constant (Kd) was determined as 0.11 nM, the koff was found to be 3.91e-05 s⁻¹ and the on-rate (kon) was determined as 357000 M⁻¹ s⁻¹.

Regarding B13, the dissociation constant Kd was found to be 0.115 nM, the off-rate (koff) is 3.94e-05 s⁻¹ and the kon is 344000 M⁻¹ s⁻¹.

Consider B14, for which the Kd was 0.45 nM, the koff turned out to be 1.35e-05 s⁻¹ and the on-rate (kon) was found to be 30100 M⁻¹ s⁻¹.

On to B15, for which the dissociation constant Kd turned out to be 0.99 nM, the dissociation rate constant (koff) amounted to 4.68e-05 s⁻¹ and the kon is 47500 M⁻¹ s⁻¹.

For the molecule B16, the dissociation constant (Kd) was found to be 0.103 nM, the koff was determined as 4.99e-05 s⁻¹ and the kon was determined as 483000 M⁻¹ s⁻¹.

Consider B17, for which the Kd was 0.79 nM, the off-rate constant (koff) is 3.47e-05 s⁻¹ and the on-rate (kon) was determined as 44100 M⁻¹ s⁻¹.

For B18, the equilibrium dissociation constant (Kd) was determined as 11.9 nM, the off-rate (koff) is 4.95e-05 s⁻¹ and the association rate constant (kon) turned out to be 4150 M⁻¹ s⁻¹.

As to B19, the Kd turned out to be 0.35 nM, the off-rate constant (koff) is 1.23e-05 s⁻¹ and the kon came out at 35200 M⁻¹ s⁻¹.

For B20, the Kd came to 0.44 nM, the dissociation rate constant (koff) was found to be 1.34e-05 s⁻¹ and the association rate constant (kon) came out at 30600 M⁻¹ s⁻¹.

In the case of B21, the dissociation constant Kd worked out at 0.32 nM, the koff came to 1.51e-05 s⁻¹ and the kon was 47400 M⁻¹ s⁻¹.

Regarding B22, the Kd was 0.29 nM, the koff is 1.04e-05 s⁻¹ and the kon was determined as 36200 M⁻¹ s⁻¹.

B23: the Kd was 0.8 nM, the koff worked out at 3.72e-05 s⁻¹ and the on-rate (kon) was determined as 46700 M⁻¹ s⁻¹.

Regarding B24, the dissociation constant Kd worked out at 0.78 nM, the dissociation rate constant (koff) is 2.89e-05 s⁻¹ and the kon stood at 37000 M⁻¹ s⁻¹.

For B25, the dissociation constant Kd amounted to 3.7 nM, the koff is 1.53e-05 s⁻¹ and the kon was found to be 4090 M⁻¹ s⁻¹.

For B26, the dissociation constant Kd is 1.14 nM, the koff came out at 4.21e-05 s⁻¹ and the on-rate constant (kon) worked out at 36900 M⁻¹ s⁻¹.

B27: the equilibrium dissociation constant (Kd) was 1.04 nM, the koff amounted to 4.35e-05 s⁻¹ and the kon was found to be 41900 M⁻¹ s⁻¹.

Turning to B28, the Kd is 0.72 nM, the koff came to 2.38e-05 s⁻¹ and the kon was 33100 M⁻¹ s⁻¹.

As to B29, the dissociation constant (Kd) amounted to 0.34 nM, the dissociation rate constant (koff) is 1.53e-05 s⁻¹ and the kon was 44900 M⁻¹ s⁻¹.

Turning to B30, the dissociation constant (Kd) was 0.53 nM, the koff worked out at 1.74e-05 s⁻¹ and the on-rate constant (kon) was 37700 M⁻¹ s⁻¹.

Consider B31, for which the Kd came out at 0.36 nM, the off-rate constant (koff) was 1.37e-05 s⁻¹ and the on-rate (kon) came out at 37800 M⁻¹ s⁻¹.

As to B32, the Kd came out at 0.35 nM, the koff worked out at 1.71e-05 s⁻¹ and the on-rate constant (kon) came to 48500 M⁻¹ s⁻¹.

B33: the Kd turned out to be 0.83 nM, the off-rate constant (koff) amounted to 3.75e-05 s⁻¹ and the kon is 45100 M⁻¹ s⁻¹.

As to B34, the Kd amounted to 0.115 nM, the off-rate (koff) came to 4.95e-05 s⁻¹ and the association rate constant (kon) amounted to 432000 M⁻¹ s⁻¹.
